B1: Protein Niban 1 (Homo sapiens), Q9BZQ8 (parent)
chain: MGGSASSQLDEGKCAYIRGKTEAAIKNFSPYYSRQYSVAFCNHVRTEVEQQRDLTSQFLKTKPPLAPGTILYEAELSQFSEDIKKWKERYVVVKNDYAVESYENKEAYQRGAAPKCRILPAGGKVLTSEDEYNLLSDRHFPDPLASSEKENTQPFVVLPKEFPVYLWQPFFRHGYFCFHEAADQKRFSALLSDCVRHLNHDYMKQMTFEAQAFLEAVQFFRQEKGHYGSWEMITGDEIQILSNLVMEELLPTLQTDLLPKMKGKKNDRKRTWLGLLEEAYTLVQHQVSEGLSALKEECRALTKGLEGTIRSDMDQIVNSKNYLIGKIKAMVAQPAEKSCLESVQPFLASILEELMGPVSSGFSEVRVLFEKEVNEVSQNFQTTKDSVQLKEHLDRLMNLPLHSVKMEPCYTKVNLLHERLQDLKSRFRFPHIDLVVQRTQNYMQELMENAVFTFEQLLSPHLQGEASKTAVAIEKVKLRVLKQYDYDSSTIRKKIFQEALVQITLPTVQKALASTCKPELQKYEQFIFADHTNMIHVENVYEEILHQILLDETLKVIKEAAILKKHNLFEDNMALPSESVSSLTDLKPPTGSNQASPARRASAILPGVLGSETLSNEVFQESEEEKQPEVPSSLAKGESLSLPGPSPPPDGTEQVIISRVDDPVVNPVATEDTAGLPGTCSSELEFGGTLEDEEPAQEEPEPITASGSLKALRKLLTASVEVPVDSAPVMEEDTNGESHVPQENEEEEEKEPSQAAAIHPDNCEESEVSEREAQPPCPEAHGEELGGFPEVGSPASPPASGGLTEEPLGPMEGELPGEACTLTAHEGRGGKCTEEGDASQQEGCTLGSDPICLSESQVSEEQEEMGGQSSAAQATASVNAEEIKVARIHECQWVVEDAPNPDVLLSHKDDVKEGEGGQESFPELPSEE

In the first assay the parent is B1. The following applies: with npm_human NPM1, P06748.
npm_human NPM1, P06748, sequence (P06748 whole entry): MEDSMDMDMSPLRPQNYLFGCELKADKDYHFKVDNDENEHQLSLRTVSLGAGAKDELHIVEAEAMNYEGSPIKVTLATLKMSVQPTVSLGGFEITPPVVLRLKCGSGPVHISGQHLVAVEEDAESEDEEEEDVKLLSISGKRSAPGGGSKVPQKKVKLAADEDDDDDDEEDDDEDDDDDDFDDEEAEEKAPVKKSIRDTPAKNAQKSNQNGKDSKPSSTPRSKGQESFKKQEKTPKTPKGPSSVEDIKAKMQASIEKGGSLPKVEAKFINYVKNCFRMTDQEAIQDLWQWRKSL
Regarding S602A, the “effect of a mutation on the interaction” value is recorded as “decreasing interaction”.

Variants of B1 are the subject of a further assay. Conditions: with npm_human NPM1, P06748. This is another data set of the same source.
In the case of S602D, the “effect of a mutation on the interaction” value is “increasing interaction”.

Source of the values: IntAct's records for PubMed 22510990.
